Source: PMC2742357
Values belong to the substance of their own block, whether it stands above or below them.

Experiments:
[1] = biological target: smooth muscle myosin (phosphorylated) (Gallus gallus) (UniProt P10587); details: cited from earlier work
[2] = biological target: phosphorylated smooth muscle myosin (chicken (endogenous in gizzard)) (UniProt P10587); assay: co-sedimentation
[3] = biological target: unphosphorylated smooth muscle myosin (chicken (endogenous in gizzard)) (UniProt P10587); assay: co-sedimentation
[4] = biological target: phosphorylated smooth muscle myosin (pSMM) (Gallus gallus) (UniProt P10587); details: cited from earlier work
[5] = biological target: unphosphorylated smooth muscle myosin (chicken (endogenous in gizzard)) (UniProt P10587); assay: ELISA
[6] = biological target: unphosphorylated smooth muscle myosin (chicken (endogenous in gizzard)) (UniProt P10587)

MLCK, sequence (P11799 935-1906): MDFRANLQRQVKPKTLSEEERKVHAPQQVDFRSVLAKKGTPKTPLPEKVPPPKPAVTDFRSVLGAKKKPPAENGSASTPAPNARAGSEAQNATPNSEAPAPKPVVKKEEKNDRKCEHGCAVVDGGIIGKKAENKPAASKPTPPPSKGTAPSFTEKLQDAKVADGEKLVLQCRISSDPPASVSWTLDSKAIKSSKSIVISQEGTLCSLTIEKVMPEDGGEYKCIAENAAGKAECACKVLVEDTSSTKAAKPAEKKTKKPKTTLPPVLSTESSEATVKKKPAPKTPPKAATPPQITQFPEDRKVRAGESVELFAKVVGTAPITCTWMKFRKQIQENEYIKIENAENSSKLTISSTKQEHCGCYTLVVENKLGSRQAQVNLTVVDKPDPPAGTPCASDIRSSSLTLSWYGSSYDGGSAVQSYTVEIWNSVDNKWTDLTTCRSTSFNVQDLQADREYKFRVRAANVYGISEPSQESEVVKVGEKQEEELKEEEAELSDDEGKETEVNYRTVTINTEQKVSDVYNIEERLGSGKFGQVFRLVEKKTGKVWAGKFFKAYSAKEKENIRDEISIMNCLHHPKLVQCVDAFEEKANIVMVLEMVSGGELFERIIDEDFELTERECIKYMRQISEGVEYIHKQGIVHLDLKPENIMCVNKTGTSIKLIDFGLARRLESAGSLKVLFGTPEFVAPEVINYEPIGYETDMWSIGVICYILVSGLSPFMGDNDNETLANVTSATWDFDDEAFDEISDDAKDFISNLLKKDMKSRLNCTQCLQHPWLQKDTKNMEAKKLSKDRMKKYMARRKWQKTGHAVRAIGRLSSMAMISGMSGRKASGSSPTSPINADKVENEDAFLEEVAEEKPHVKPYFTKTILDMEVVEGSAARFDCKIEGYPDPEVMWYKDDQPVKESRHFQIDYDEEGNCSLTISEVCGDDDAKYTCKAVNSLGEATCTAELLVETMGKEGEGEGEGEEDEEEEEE

Substance: MLCK (from UniProt P11799)
- Kd [1]: 0.77 µM

- Kd of the more weakly bound MLCK pool [2]: 23.8 µM
- Kd of the more weakly bound MLCK pool [3]: 9.5 µM
- percent of MLCK bound to SMM, spin 2 [3]: 75%
Substance: smooth muscle myosin light chain kinase (enzyme)

Substance: smooth muscle myosin light chain kinase (MLCK) (from UniProt P11799)
- Kd [4]: > 100 µM

- percent of actin displaced from the SMM coverslip at 50 uM telokin [5]: 9%
- percent of actin displaced from SMM filaments at 50 uM telokin [3]: 5%
- Kd [6]: 5 µM
Substance: telokin (natural protein)
